Laboratory results: US20120129766A1 (IRM, published 2012)

T1: human β-klotho (human, UniProt Q86Z14 1-1044)
T1 sequence (looked up): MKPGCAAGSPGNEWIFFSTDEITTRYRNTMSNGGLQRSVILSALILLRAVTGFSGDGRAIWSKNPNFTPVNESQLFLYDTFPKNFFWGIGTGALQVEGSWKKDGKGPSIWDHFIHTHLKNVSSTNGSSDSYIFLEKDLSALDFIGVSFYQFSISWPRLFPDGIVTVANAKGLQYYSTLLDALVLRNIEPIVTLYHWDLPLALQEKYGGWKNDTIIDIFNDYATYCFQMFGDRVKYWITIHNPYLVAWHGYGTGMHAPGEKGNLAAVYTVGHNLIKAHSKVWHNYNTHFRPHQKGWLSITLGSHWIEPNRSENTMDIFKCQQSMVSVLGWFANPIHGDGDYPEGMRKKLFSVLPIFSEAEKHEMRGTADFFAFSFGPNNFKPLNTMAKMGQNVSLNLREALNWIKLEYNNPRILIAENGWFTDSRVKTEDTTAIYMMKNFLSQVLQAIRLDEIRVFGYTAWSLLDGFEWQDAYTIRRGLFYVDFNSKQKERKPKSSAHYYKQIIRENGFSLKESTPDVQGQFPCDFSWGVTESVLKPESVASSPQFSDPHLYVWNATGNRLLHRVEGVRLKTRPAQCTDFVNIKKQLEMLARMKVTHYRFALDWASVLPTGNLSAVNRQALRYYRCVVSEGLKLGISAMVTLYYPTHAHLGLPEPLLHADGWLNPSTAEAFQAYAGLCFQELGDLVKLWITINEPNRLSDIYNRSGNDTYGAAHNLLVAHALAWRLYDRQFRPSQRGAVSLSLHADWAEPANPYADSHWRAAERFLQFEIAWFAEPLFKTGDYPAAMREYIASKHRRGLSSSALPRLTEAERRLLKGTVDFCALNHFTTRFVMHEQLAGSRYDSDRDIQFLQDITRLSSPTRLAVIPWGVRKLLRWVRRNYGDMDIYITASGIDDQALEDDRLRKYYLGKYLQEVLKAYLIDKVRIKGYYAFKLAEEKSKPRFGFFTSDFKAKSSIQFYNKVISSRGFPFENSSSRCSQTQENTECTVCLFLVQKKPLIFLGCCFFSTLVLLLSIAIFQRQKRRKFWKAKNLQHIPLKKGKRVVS


The binders below were run against T1, human β-klotho (assay: cell-based or functional assay).

EC50 (nM), pERK In Cell Western [nM]	Fold-WT (EC50 of variant / EC50 of FGF21-WT) [fold]	Binder
26	9.3	hFGF21(33-209)-V5 (ligand) DSSPLLQFGGQVRQRYLYTDDDQQTEAHLEIREDGTVGGAAHQSPESLLQLKALKPGVIQILGVKASRFLCQKPDGALYGSLHFDPEACSFRELLLENGYNVYQSEAHGLPLHLPGNRSPHRDPASQGPARFLPLPGLPPALPEPPGILAPQPPDVGSSDPLAMVGPSQARSPSYAS
4.2	1.3	hFGF21(33-209)-V53 (ligand) DSSPLLQFGGQVRQRYLYTDDAQETEAHLEIREDGTVGGAAHQSPESLLELKALKPGVIQILGVKTSRFLCQKPDGALYGSLHFDPEACSFRELLLENGYNVYQSEAHGLPLHLPGNRSPHRDPASQGPARFLPLPGLPPAPPEPPGILAPQPPDVGSSDPLAMVGPSQGRSPSYAS
11	4	hFGF21(33-209)-V13 (ligand) DSSPLLQFGGQVRQRYLYTDDDQQTEAHLEIREDGTVGGAAHQSPESLLQLKALKPGVIQILGVKASRFLCQKPDGALYGSLHFDPEACSFRELLLENGYNVYQSEAHGLPLHLPGNRSPHRDPAPQGPARFLPLPGLPPALPEPPGILAPQPPDVGSSDPLAMVGPSQGRSPSYAS
34	13	hFGF21(33-209)-V55 (ligand) DSSPLLQFGGQVRQRYLYTDDAQQTEAHLEIREDGTAGGAAHQSPESLLELKALKPGVIQILGVKTSRFLCQKPDGALYGSLHFDPEACSFRELLLENGYNVYQSEAHGLPLHLPGNRSPHRDPASQGPARFLPLPGLPPAPPEPPGILAPQPPDVGSSDPLAMVGPSQGRSPSYAS
18	3.3	hFGF21(33-209)-V10 (ligand) DSSPLLQFGGQVRQRYLYTDDAQETEAHLEIREDGTVGGAAHQSPESLLQLKALKPGVIQILGVKASRFLCQKPDGALYGSLHFDPEACSFRELLLENGYNVYQSETHGLPLHLPGNKSPHRDPASQGPARFLPLPGLPPALPEPPGILAPQPPDVGSSDPLAMVGPSQARSPSYAS
37	14	hFGF21(33-209)-V56 (ligand) DSSPLLQFGGQVRQRYLYTDDAQQTEAHLEIREDGTVGGAAHQSPESLLQLKALKPGVIQILGVKASRFLCQKPDGALYGSLHFDPEACSFRELLLENGYNVYQSETHGLPLHLPGNKSPHRDPASQGPARFLPLPGLPPAPPEPPGILAPQPPDVGSSDPLAMVGPSQARSPSYAS
3.3	1.2	hFGF21(33-209)-V15 (ligand) DSSPLLQFGGQVRQRYLYTDDAQETEAHLEIREDGTVGGAAHQSPESLLQLKALKPGVIQILGVQTSRFLCQKPDGALYGSLHFDPEACSFRELLLENGYNVYQSEAHGLPLHLPGNRSPHRDPAPQGPARFLPLPGLPPALPEPPGILAPQPPDVGSSDPLAMVGPSQGRSPSYAS
28	18	hFGF21(33-209)-V11 (ligand) DSSPLLQFGGQVRQRYLYTDDDQQTEAHLEIREDGTVGGAAHQSPESLLELKALKPGVIQILGVKTSRFLCQKPDGALYGSLHFDPEACSFRELLLENGYNVYQSEAHGLPLHLPGNRSPHRDPAPQGPARFLPLPGLPPALPEPPGILAPQPPDVGSSDPLAMVGPSQGRSPSYAS
107	22	hFGF21(33-209)-V14pool 1-N-40 kDa bPEG-AL (ligand, 40 kDa branched PEG (aldehyde reagent) on the N-terminal amine) DSSPLLQFGGQVRQRYLYTDDAQETEAHLEIREDGTVGGAAHQSPESLLELKALKPGVIQILGVKTSRFLCQKPDGALYGSLHFDPEACSFRELLLENGYNVYQSEAHGLPLHLPGNRSPHRDPAPQGPARFLPLPGLPPALPEPPGILAPQPPDVGSSDPLAMVGPSQGRSPSYAS
6.7	1.4	hFGF21(33-209)-V14-pool1 (ligand) DSSPLLQFGGQVRQRYLYTDDAQETEAHLEIREDGTVGGAAHQSPESLLELKALKPGVIQILGVKTSRFLCQKPDGALYGSLHFDPEACSFRELLLENGYNVYQSEAHGLPLHLPGNRSPHRDPAPQGPARFLPLPGLPPALPEPPGILAPQPPDVGSSDPLAMVGPSQGRSPSYAS
14	5	hFGF21(33-209)-V12 (ligand) DSSPLLQFGGQVRQRYLYTDDDQQTEAHLEIREDGTVGGAAHQSPESLLQLKALKPGVIQILGVQTSRFLCQKPDGALYGSLHFDPEACSFRELLLENGYNVYQSEAHGLPLHLPGNRSPHRDPAPQGPARFLPLPGLPPALPEPPGILAPQPPDVGSSDPLAMVGPSQGRSPSYAS
66	94	hFGF21(33-209)-V52 (ligand) DSSPLVQFGGQVRQRYLYTDDAQQTEAHLEIREDGTVGGAAHQSPESLLQLKALKPGVIQILGVKTSRFLCQKPDGALYGSLHFDPEACSFRELLLENGYNVYQSEAHSLPLHLPGNKSPHRDPASQGPARFLPLPGLPPALPEPPGILAPQPPDVGSSDPLSMVGPSQARSPSYAS
6.7	1	hFGF21(33-209)-V14-R154C, L174P (ligand) DSSPLLQFGGQVRQRYLYTDDAQETEAHLEIREDGTVGGAAHQSPESLLELKALKPGVIQILGVKTSRFLCQKPDGALYGSLHFDPEACSFRELLLENGYNVYQSEAHGLPLHLPGNRSPHCDPAPQGPARFLPLPGLPPAPPEPPGILAPQPPDVGSSDPLAMVGPSQGRSPSYAS
19	6.8	hFGF21(33-209)-V7 (ligand) DSSPLLQFGGQVRQRYLYTDDAQETEAHLEIREDGTVGGAAHQSPESLLQLKALKPGVIQILGVKASRFLCQKPDGALYGSLHFDPEACSFRELLLENGYNVYQSEAHGLPLHLPGNRSPHRDPASQGPARFLPLPGLPPALPEPPGILAPQPPDVGSSDPLAMVGPSQARSPSYAS
21	3.3	hFGF21(33-209)-V14-L174P, R154C-40 kDa bPEG-MA (ligand, 40 kDa branched maleimido-PEG on Cys 154 (numbered on SEQ ID NO:1)) DSSPLLQFGGQVRQRYLYTDDAQETEAHLEIREDGTVGGAAHQSPESLLELKALKPGVIQILGVKTSRFLCQKPDGALYGSLHFDPEACSFRELLLENGYNVYQSEAHGLPLHLPGNRSPHCDPAPQGPARFLPLPGLPPAPPEPPGILAPQPPDVGSSDPLAMVGPSQGRSPSYAS
22	5.4	hFGF21(33-209)-V57 (ligand) DSSPLLQFGGQVRQRYLYTDDAQQTEAHLEIREDGTVGGAAHQSPESLLQLKALKPGVIQILGVKASRFLCQRPDGALYGSLHFDPEACSFRELLLENGYNVYQSETHGLPLHLPGNRSPHRDPASQGPARFLPLPGLPPAPPEPPGILAPQPPDVGSSDPLAMVGPSQARSPSYAS
11	6.5	hFGF21(33-209)-V16 (ligand) DSSPLLQFGGQVRQRYLYTDDAQETEAHLEIREDGTVGGAAHQSPESLLQLKALKPGVIQILGVKASRFLCQKPDGALYGSLHFDPEACSFRELLLENGYNVYQSEAHGLPLHLPGNRSPHRDPAPQGPARFLPLPGLPPALPEPPGILAPQPPDVGSSDPLAMVGPSQGRSPSYAS
15	2.7	hFGF21(33-209)-V18 (ligand) DSSPLLQFGGQVRQRYLYTDDAQQTESHLEIREDGTVGGAAHQSPESLLQLKALKPGVIQILGVQTSRFLCQKPDGALYGSLHFDPEACSFRELLLENGYNVYQSEAHGLPLHLPGNRSPHRDPAPQGPARFLPLPGLPPALPEPPGILAPQPPDVGSSDPLAMVGPSQGRSPSYAS
25	9.2	hFGF21(33-209)-V54 (ligand) DSSPLLQFGGQVRQRYLYTDDAQQTEAHLEIREDGTVGGAAHQSPESLLELKALKPGVIQILGVKTSRFLCQKPDGTLYGSLHFDPEACSFRELLLENGYNVYQSEAHGLPLHLPGNRSPHRDPASQGPARFLPLPGLPPAPPEPPGILAPQPPDVGSSDPLAMVGPSQGRSPSYAS
5.3	1.4	hFGF21(33-209)-V14-pool2 (ligand) DSSPLLQFGGQVRQRYLYTDDAQETEAHLEIREDGTVGGAAHQSPESLLELKALKPGVIQILGVKTSRFLCQKPDGALYGSLHFDPEACSFRELLLEDGYNVYQSEAHGLPLHLPGNRSPHRDPAPQGPARFLPLPGLPPALPEPPGILAPQPPDVGSSDPLAMVGPSQGRSPSYAS
